Source: US5573928A, “Porcine vasoactive intestinal peptide receptor and DNA” (Eli Lilly and Company, priority 1993, dated 1996)
Where no end group is shown, it is not given here.

Target: T1, pVIP receptor (Sus scrofa, UniProt Q28992)
T1 sequence (Q28992 32-458): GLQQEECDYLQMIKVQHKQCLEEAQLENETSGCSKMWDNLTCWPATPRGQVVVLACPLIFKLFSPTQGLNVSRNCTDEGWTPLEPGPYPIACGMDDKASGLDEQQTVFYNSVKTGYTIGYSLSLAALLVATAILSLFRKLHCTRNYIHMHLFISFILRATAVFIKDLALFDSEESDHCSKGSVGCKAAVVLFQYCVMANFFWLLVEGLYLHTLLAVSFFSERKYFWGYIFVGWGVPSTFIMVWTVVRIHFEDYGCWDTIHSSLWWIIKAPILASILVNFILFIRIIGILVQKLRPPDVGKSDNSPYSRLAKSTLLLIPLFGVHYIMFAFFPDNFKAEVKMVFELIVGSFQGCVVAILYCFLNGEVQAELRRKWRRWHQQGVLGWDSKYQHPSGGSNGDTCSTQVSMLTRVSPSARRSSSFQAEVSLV
Experiment: cAMP assay in 293/VIPR cells expressing the pVIP receptor
Format: cell-based, porcine
Details: for intracellular [cAMP]: 293/VIPR cells, 45 min at 37° C.
Protocol: Briefly, a double stranded counterpart to Sequence ID#i, externally modified to incorporate convenient restriction sites, was integrated into the pRc/CMV vector and recombinantly expressed in 293 cells. The cDNA transcript included the signal peptide region of the native transcript facilitating proper orientation and integration into the transfected cell membrane. […] The cAMP level was also measured upon exposure of the transfected cells in response to the addition of secretin, and GHRH, two peptides closely related to VIP.
After removing the solution, 0.5 ml of 60% ethanol was added to lyse the cells in each well. An aliquot was taken, dried in vacUo, and the level of cAMP was determined.
Cells were washed twice with the incubation buffer (Dulbecco's modified Eagle's medium containing 0.5 mM 1-methyl-3-isobutylxanthine and 1 mg/ml BSA). […] After removing the buffer, 0.5 ml of 60% ethanol was added to lyse the cells in each well.

Row | intracellular [cAMP] (hormone concentration 10^-6 M) [pmoles/10^5 cells] | intracellular [cAMP] (hormone concentration 10^-7 M) [pmoles/10^5 cells] | intracellular [cAMP] (hormone concentration 10^-8 M) [pmoles/10^5 cells] | intracellular [cAMP] (hormone concentration 10^-9 M) [pmoles/10^5 cells] | intracellular [cAMP] (hormone concentration 10^-10 M) [pmoles/10^5 cells] | intracellular [cAMP] (hormone concentration 10^-11 M) [pmoles/10^5 cells] | Substance | intracellular cAMP levels upon exposure (in words) (transfected 293 cells expressing the protein of Sequence ID#2)
1 | 440 | 240 | 185 | 28 | < 10 | < 10 | porcine secretin (HSDGTFTSELSRLRDSARLQRLLQGLV; ends and bridges not checked; UniProt P63298 33-59, looked up) [peptide hormone closely related to VIP, commercially available from Peninsula Laboratories] | –
2 | 400 | 404 | 400 | 105 | < 10 | < 10 | GHRH: growth hormone-releasing hormone, a peptide closely related to VIP | –

Row | Substance | intracellular [cAMP] (hormone concentration 10^-6 M) [pmoles/10^5 cells] | intracellular [cAMP] (hormone concentration 10^-7 M) [pmoles/10^5 cells] | intracellular [cAMP] (hormone concentration 10^-8 M) [pmoles/10^5 cells] | intracellular [cAMP] (hormone concentration 10^-9 M) [pmoles/10^5 cells] | intracellular [cAMP] (hormone concentration 10^-10 M) [pmoles/10^5 cells] | intracellular [cAMP] (hormone concentration 10^-11 M) [pmoles/10^5 cells] | intracellular cAMP levels upon exposure (in words) (transfected 293 cells expressing the protein of Sequence ID#2)
3 | porcine vasoactive intestinal polypeptide [VIP] | 420 | 440 | 404 | 64 | 15 | < 10 | intracellular increase in cAMP levels
